Our source for the Kd values is doi:10.1101/2020.07.01.182063.

What all share (test): fluorescence polarisation
For orientation: Fluorescence polarisation rises when a labelled molecule tumbles more slowly, as on binding a larger partner.

In experiment [1] the target is HIM-3 closure motif peptide phosphorylated at Tyr279 (C. elegans).
The target in experiment [2] is HIM-3 closure motif peptide with the S282A substitution (C. elegans).
Experiment [3] concerns the target HIM-3 closure motif peptide, unmodified (wild type) (C. elegans).

As to “HTP-2 protein (full length) (natural protein)”, the figures for the Kd in experiment [1], in experiment [2] and in experiment [3] were 16.1 µM, 11.3 µM and 5.8 µM, respectively.

The term Kd denotes the free concentration of one partner at which half of the binding sites on the other are occupied at equilibrium, for simple one-to-one binding. Low readings indicate a tighter complex, high ones a looser complex.
